1 molecule from patent US20200347138A1 (INDIAN INSTITUTE OF SCIENCE, published 2020) can be followed below.

One test concerns the target T1, MAb B52/28.
T1 construct: hCG heterodimer specific monoclonal antibody used in the RIA
Put plainly: RIA: unlabelled hormone displaces 125I-hCG from MAb 52/28 [left panel (A].

The target of another test is T2, human DEC205 (human, UniProt O60449 28-1722).
T2 construct: also called hDEC205; CHO/hDEC205
The test can be described thus: flow cytometry on CHO/hDEC205 cells, hCG a/s and anti-rabbit IgG-FITC. A general note: A flow cytometer gives signals particle by particle.

T2 sequence (O60449 28-1722 K1321N/Y1391H limits assumed): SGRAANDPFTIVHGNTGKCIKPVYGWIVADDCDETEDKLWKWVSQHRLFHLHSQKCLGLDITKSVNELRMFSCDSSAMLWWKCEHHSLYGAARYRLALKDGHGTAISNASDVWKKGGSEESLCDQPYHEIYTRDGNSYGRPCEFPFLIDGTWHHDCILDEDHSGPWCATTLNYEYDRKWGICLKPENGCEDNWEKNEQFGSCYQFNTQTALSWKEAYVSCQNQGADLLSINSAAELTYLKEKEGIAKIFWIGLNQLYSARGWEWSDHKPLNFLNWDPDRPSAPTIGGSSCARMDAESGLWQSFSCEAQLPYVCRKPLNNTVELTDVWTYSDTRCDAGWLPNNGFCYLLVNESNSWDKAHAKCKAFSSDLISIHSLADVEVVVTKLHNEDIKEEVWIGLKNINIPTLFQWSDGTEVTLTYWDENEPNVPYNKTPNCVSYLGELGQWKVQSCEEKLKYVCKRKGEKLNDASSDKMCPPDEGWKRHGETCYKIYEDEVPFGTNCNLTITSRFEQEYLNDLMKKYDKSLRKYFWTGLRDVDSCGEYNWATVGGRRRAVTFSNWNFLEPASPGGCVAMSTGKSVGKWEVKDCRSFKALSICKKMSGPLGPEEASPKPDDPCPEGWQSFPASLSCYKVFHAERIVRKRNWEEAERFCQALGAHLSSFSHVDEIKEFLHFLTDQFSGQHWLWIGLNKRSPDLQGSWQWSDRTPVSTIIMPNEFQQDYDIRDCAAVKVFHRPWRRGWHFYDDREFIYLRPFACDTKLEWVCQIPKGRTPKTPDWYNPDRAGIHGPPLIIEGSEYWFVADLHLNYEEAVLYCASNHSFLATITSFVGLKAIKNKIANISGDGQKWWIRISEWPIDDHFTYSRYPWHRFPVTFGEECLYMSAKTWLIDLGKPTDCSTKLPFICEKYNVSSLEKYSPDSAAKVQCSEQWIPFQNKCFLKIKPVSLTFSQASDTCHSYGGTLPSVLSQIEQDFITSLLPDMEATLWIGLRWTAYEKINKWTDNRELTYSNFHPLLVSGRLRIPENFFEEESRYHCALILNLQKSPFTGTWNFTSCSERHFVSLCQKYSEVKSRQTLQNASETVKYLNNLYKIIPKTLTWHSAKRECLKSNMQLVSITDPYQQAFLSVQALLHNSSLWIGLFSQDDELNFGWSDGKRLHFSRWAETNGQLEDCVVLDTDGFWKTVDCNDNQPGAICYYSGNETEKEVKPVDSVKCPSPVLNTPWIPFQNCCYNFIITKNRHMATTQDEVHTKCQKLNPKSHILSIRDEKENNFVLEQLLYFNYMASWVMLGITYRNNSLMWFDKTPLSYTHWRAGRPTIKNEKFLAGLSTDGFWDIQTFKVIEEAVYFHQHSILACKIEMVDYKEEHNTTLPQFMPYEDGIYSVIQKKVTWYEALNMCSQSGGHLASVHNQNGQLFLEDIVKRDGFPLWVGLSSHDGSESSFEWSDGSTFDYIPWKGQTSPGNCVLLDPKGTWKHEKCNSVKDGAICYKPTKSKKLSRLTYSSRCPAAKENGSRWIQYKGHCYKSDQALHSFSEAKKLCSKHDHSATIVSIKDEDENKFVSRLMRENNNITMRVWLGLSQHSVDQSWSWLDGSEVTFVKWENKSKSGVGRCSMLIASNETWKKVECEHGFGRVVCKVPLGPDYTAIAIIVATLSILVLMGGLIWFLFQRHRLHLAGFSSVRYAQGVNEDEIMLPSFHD
Experimental for MAb B52/28: The antigen-antibody complexes formed were precipitated by adding an appropriate dilution of the normal mouse/rabbit serum, and goat anti-mouse/rabbit IgG followed by addition of 2.5% PEG. The tubes were centrifuged at 4,000 g for 20 minutes at 4 □, the supernatant was discarded and the radioactivity in the pellet was counted in Perkin Elmer γ-counter. The non-specific binding was determined by carrying out binding experiments in the absence of the primary antibodies.
The biotin tagged hormonal antigens were analyzed by RIA using hormone specific antibodies (52/28 for hCG and FSH a/s for hFSH) for their ability to retain their immunodominant epitopes. […] The NIH iodination grade hCG and hFSH were used as the standard reference preparations in the RIA and were used for comparing the bioactivity of these hormonal antigens.
Experimental for human DEC205: The ability of ScFv to load antigen onto the human DEC205 was checked by flow cytometry.
The complex was incubated with CHO/hDEC205 cells for one hour at 4□ followed by incubation with hCG a/s and subsequently with anti-Rabbit IgG FITC and binding was analyzed by flow cytometry.

B1: biotin tagged recombinant human chorionic gonadotropin (ligand)
chain 1: not shown
chain 2: SKEPLRPRCRPINATLAVEKEGCPVCITVNTTICAGYCPTMTRVLQGVLPALPQVVCNYRDVRFESIRLPGCPRGVNPVVSYAVALSCQCALCRRSTTDCGGPKDHPLTCDDPRFQDSSSSKAPPPSLPSPSRLPGPSDTPILPQ
modifications: biotin by Sulfo-NHS-LC Biotin on the hormone, sites not stated
notes: also called biotin-hCG
Turning to B1, in the test with MAb B52/28, the “IC50 (read off the curve)” value is approximately 6 ng/tube. Also, in the test with human DEC205, the binding result is given as “no binding”.
